Measured values taken from US20210130484A1 (SORRENTO THERAPEUTICS, published 2021).

Biological target: T1, Recombinant human his-tagged CD38 protein (human, UniProt P28907 43-300)
T1 construct: not shown: his tag
Experiment: SPR (Biacore T200, 25 C), antibody captured on anti-human Fc CM5 chip, his-tagged human CD38 as analyte, steady state affinity model
Experimental: Binding kinetics of parent antibody CD38 A2 and variant antibody CD38 A2 SV was measured using surface plasmon resonance (SPR). Kinetic interaction between the parent or variant antibody and a his-tagged CD38 protein were measured at 25° C. using Biacore T200 surface plasmon resonance (GE Healthcare). Anti-human fragment crystallizable region (Fc region) antibody was immobilized on a CM5 sensor chip to approximately 8000 resonance units (RU) using standard N hydroxysuccinimide/N Ethyl-N′-(3-dimethylaminopropyl) carbodiimide hydrochloride (NHS/EDC) coupling methodology. The CD38 A2 parent antibody or CD38 A2 SV variant antibody (2 μg/mL) was captured for 60 seconds at a flow rate of 10 μL/minute. Recombinant human his-tagged CD38 protein was serially diluted in a running buffer of 0.01 M HEPES pH 7.4, 0.15 M NaCl, 3 mM EDTA, 0.05% v/v Surfactant P20 (HBS EP+). All measurements were conducted in HBS-EP+buffer with a flow rate of 30 μL/minute. Steady state affinity model was used to get affinity. The sensorgrams of the CD38 A2 parent antibody and CD38 A2 SV variant antibody are shown in FIGS. 3A and B, respectively, and their corresponding binding kinetics are listed in Table 3 below.

B1: variant antibody CD38 A2 SV (antibody, V domains shown)
VH: QVQLVESGGGLVKPGGSLRLSCAASGFTFSDDYMSWIRQAPGKGLEWVASVSNGRPTTYYADSVRGRFTISRDNAKNSLYLQMNSLRAEDTAVYYCAREDWGGEFTDWGRGTLVTVSS
VL: QSVLTQPPSASGTSGQRVTISCSGSSSNIGINFVYWYQHLPGTAPKLLIYKNNQRPSGVPDRFSGSKSGNSASLAISGLRSEDEADYYCAAWDDSLSGYVFGSGTKVTVL
notes: also called CD38-A2 SV mutant; CD38 A2 SV variant antibody
  Kd: 15.6 nM
